Assay results taken from PMC3169630.

What was measured:
[1] = target: recombinant human Siglec-5 Fc fusion protein (human) (UniProt O15389); assay: SPR; BIAcore 3000, CM5 chip; Siglec-Fc immobilised at moderate density (2000–7000 RU; capture with immobilized protein A or amine cross-link); gp120 10–500 nM in PBS or HBS-P injected at 20 µL/min; KD from kinetic curve fitting
[2] = target: recombinant human Siglec-1-Fc (four N-terminal Ig domains of hSiglec-1 fused to the Fc regions of human IgG1) (human); assay: as above
[3] = target: recombinant human Siglec-7 Fc fusion protein (human) (UniProt Q9Y286); assay: as above
[4] = target: recombinant human Siglec-3 Fc fusion protein (human) (UniProt P20138); assay: as above
[5] = target: recombinant human Siglec-9 Fc fusion protein (human) (UniProt Q9Y336); assay: as above
[6] = target: recombinant human Siglec-5 Fc fusion protein (human) (UniProt O15389); assay: SPR; BIAcore 3000, CM5 chip; Siglec-Fc immobilised at high density (12000–20000 RU); gp120 in PBS or HBS-P injected at 20 µL/min; KD from kinetic curve fitting
[7] = target: recombinant human Siglec-7 Fc fusion protein (human) (UniProt Q9Y286); assay: as above
[8] = target: recombinant human Siglec-3 Fc fusion protein (human) (UniProt P20138); assay: as above

Chain of UniProt Q9Y336 (Q9Y336 18-348): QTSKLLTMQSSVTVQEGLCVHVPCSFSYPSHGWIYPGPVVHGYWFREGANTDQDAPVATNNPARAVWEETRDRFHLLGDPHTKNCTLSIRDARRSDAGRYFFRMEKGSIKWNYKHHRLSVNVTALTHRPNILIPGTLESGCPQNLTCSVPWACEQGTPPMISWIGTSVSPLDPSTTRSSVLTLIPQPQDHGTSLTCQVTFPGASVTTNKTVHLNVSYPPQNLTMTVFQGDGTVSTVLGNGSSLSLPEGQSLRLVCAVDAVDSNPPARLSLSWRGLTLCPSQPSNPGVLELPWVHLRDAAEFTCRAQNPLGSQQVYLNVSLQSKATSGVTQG
Chain of UniProt Q9Y286 (Q9Y286 19-353): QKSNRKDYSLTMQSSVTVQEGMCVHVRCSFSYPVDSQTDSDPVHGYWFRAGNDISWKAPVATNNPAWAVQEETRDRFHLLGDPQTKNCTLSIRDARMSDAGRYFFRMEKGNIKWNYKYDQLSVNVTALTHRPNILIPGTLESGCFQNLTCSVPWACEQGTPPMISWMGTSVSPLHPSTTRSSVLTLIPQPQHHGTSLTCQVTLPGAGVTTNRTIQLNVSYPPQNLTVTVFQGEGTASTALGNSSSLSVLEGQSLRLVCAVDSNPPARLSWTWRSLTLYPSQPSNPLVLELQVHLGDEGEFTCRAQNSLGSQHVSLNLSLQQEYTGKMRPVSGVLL
Chain of UniProt P20138 (P20138 18-259): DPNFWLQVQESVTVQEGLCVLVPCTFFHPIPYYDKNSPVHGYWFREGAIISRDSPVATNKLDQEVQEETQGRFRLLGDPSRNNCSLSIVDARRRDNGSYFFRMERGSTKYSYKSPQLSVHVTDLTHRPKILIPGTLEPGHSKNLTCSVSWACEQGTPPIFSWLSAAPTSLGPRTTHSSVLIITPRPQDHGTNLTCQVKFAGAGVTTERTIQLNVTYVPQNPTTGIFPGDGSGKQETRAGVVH
Chain of UniProt O15389 (O15389 17-441): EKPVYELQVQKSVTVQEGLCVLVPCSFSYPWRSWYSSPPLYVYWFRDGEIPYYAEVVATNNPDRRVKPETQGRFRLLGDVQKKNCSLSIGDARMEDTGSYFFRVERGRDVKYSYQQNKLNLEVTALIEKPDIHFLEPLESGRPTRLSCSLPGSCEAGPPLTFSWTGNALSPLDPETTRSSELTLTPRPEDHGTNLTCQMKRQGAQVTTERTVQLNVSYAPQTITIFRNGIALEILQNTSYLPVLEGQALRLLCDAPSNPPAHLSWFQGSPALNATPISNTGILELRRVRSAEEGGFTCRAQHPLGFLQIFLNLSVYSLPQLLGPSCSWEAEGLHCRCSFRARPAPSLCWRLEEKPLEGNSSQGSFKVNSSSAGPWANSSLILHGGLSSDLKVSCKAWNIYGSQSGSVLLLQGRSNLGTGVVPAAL

Substance: recombinant gp120 from the 92UG21-9 HIV-1 isolate (natural protein)
- Kd [1]: 47.1 µM
- Kd [2]: 0.08 µM
- Kd [3]: 49.2 µM
- Kd [4]: 3.8 µM
- Kd [5]: 0.05 µM
- Kd [6]: 0.05 µM
- Kd [7]: 0.05 µM
- Kd [8]: 0.08 µM

Substance: recombinant gp120 from the 92US715 HIV-1 isolate (natural protein)
- Kd [1]: 9.4 µM
- Kd [2]: 0.13 µM
- Kd [3]: 53.4 µM
- Kd [4]: 57.8 µM
- Kd [5]: 0.023 µM
- Kd [6]: 0.02 µM
- Kd [7]: 0.04 µM
- Kd [8]: 0.008 µM

Substance: recombinant gp120 from the 93MW959 HIV-1 isolate (natural protein)
- Kd [6]: 0.015 µM
- Kd [7]: 0.02 µM
- Kd [8]: 0.012 µM

Substance: recombinant gp120 from the 93UG037 HIV-1 isolate (monomeric) (natural protein)
- Kd [1]: 20.3 µM
- Kd [2]: 6.3 µM
- Kd [3]: 9.9 µM
- Kd [5]: 0.1 µM
- Kd [6]: 0.054 µM
- Kd [7]: 0.094 µM
- Kd [8]: 0.051 µM

Substance: recombinant gp120 from the SIVsmm PBj1.9 isolate (natural protein)
- Kd [1]: 50.5 µM
- Kd [2]: 0.12 µM
- Kd [3]: 35.4 µM
- Kd [4]: 54.5 µM
- Kd [5]: 0.27 µM
- Kd [6]: 0.014 µM
- Kd [7]: 0.019 µM
- Kd [8]: 0.18 µM

Substance: trimeric gp120 from the 93UG037 strain fused with a trimerization domain from T4 bacteriophage fibritin
- Kd [1]: 5.1 µM
- Kd [2]: 0.9 µM
- Kd [3]: 2.7 µM
- Kd [5]: 0.08 µM
